The target in data set [1] is GST::bov-rPrP25-242 (rPrPc) (Bos taurus, UniProt P10279 P10279:25-242). As to the kind of experiment: EMSA. The following applies: tags: GST fusion, insect cells/baculovirus; label: 32P. A general note: Mobility shift assays separate free from complexed probe on a gel.
For data set [2], the target named is GST::bov-rPrP93-242 (rPrP27-30 + 1 octarepeat) (Bos taurus, UniProt P10279 P10279:93-242). The data set is described as follows: EMSA. The following applies: tags: GST fusion, insect cells/baculovirus; label: 32P.

B1: Ap2 motif II (ssRNA)
RNA: GGAGCUCAGCCUUCACUGCUACCUUAGAGUAGGAGCGGGACGAGGGGUUGUUGGGACGUGGGUAUGAUCCAUACAUUAGGAAGCUGGUGAGCUGGCACCACGGUCGGAUCCAC
Regarding B1, the binding result in data set [1] is on record as “binds”; in data set [2], “no binding”.

B2: Ap1 motif I 60mer (ssRNA)
RNA: GCAAUGCGUUGUGUGGGAAUUUGAGGGACGAUGGGGAAGUGGGGACGAAUGACUCAUUGC
B2: the binding result in data set [1] is listed as “binds”; in data set [2], “no binding”.

The values above are taken from patent US20030119019 (published 2003).
